Measurements: patent publication US20210395718A1, “NOVEL KETOSE 3-EPIMERASE” (NATIONAL UNIVERSITY CORPORATION KAGAWA UNIVERSITY, priority 2018, published 2021)

Legend:
[1] = Thermal stability: residual activity after incubation at 60° C. for one hour; format: biochemical; settings: crude recombinant enzyme; after incubation at 60° C. for 1 hour
Method: Thermal stability of the enzyme was investigated by measuring the activity of the enzyme after incubation at 60° C. for one hour and finding its relative activity supposing that the activity at 60° C. under the reaction conditions (10 minutes) used for determining the optimum temperature in the above 2 shown in Table 2 was 100. As heat treatment conditions, the crude enzyme solution, a buffer (50 mM tris-HCl, pH 7.5), and 2 mM MgCl2 were used to give a total amount of 200 p1 and after retaining at 60° C. for one hour, the reaction mixture was cooled for 10 minutes in ice water. The residual enzyme activity was then measured by the conventional method.
The activity of each of the present enzyme (crude recombinant enzyme) and the crude enzyme of the control enzyme after incubation at 60° C. for 1 hour was measured and a relative activity of it was determined supposing that the activity at 60° C. under the reaction conditions (10 minutes) for determining the optimum temperature in the above 2 shown in Table 2 is 100. The relative activity was used as a heat resistance index of the enzyme. As heat treatment conditions, the crude enzyme solution, a buffer (50 mM tris-HCl, pH 7.5), and 2 mM MgCl2 were used to give a total amount of 200 p1 and after retaining at 60° C. for one hour, the reaction mixture was cooled for 10 minutes in ice water. The residual enzyme activity was measured by the conventional method.

[2] = Ketose 3-epimerase activity ratio (T70/T50) at reaction temperature of 70° C. to 50° C.; format: biochemical; settings: crude recombinant enzyme; ratio of activity at 70° C. to activity at 50° C., 10 min reaction
Method: An enzyme having higher heat resistance than an amino acid substitution-free wild type enzyme can be obtained by introducing mutation into the gene of the ketose 3-epimerase of the present invention and substituting the corresponding amino acid residue with another amino acid residue by a site-directed mutagenesis operation to prepare various amino acid-substituted mutants. The heat resistance is evaluated by two indices, that is, a ketose 3-epimerase activity ratio (T70/T50) at the reaction temperatures of 70° C. to 50° C. and a residual activity after incubation at 60° C. for one hour.
Heat resistance of the present enzyme (crude recombinant enzyme) and the crude enzyme of the control enzyme was investigated by measuring an activity at 70° C. and an activity at 50° C. under the reaction conditions (10 minutes) used for determining the optimum temperature in the above 2 shown in Table 2 and finding their ratio (T70/T50).

B1: Ketose 3-epimerase mutant 7: amino acid-substituted mutant of SEQ ID NO: 1 (protein)
chain: MKIGCHGLVWTGRFDAEGIRYSVQKTKEAGFDLIEFPLMDPFSFDVATAKSALAEHGLSVSASLGLSEATDVSSEDPAIVKAGEELLNRALDVLAELGATDFCGVIYSAMKKYMEPATEQGLSNSKAAVGRVVDRAAGLGINVSLEVVNRYETNVLNTGRQALSYLSDVKRPNLGVHLDTYHMNIEESDMFSPVLDTAEVLKYVHIGESHRGYLGTGSVDFDNFFKALGRIGYDGPVVFESFSSAVVAPDLSRMLGIWRNLWADNEELGAHANAFIRDKLTAIKTIELH
modifications: Arthrobacter histidinolovorans
Residual activity (%) [1]: 83.1%
T70/T50 [2]: 2.03

B2: Ketose 3-epimerase mutant 11: amino acid-substituted mutant of SEQ ID NO: 1 (protein)
chain: MKIGCHGLVWTGRFDAEGIRYSVQKTKEAGFDLIEFPLMDPFSFDVATAKSALAEHGLTASASLGLSEATDVSSEDPAIVKAGEELLNRALDVLAELGATDFCGVIYSAMKKYMEPATEQGLSNSKAAIGRVVDRAAGLGINVSLEVVNRYETNVLNTGRQALSYLSDVKRPNLGVHLDTYHMNIEESDMFSPVLDTAEALKYVHIGESHRGYLGTGSVDFDNFFKALGRIGYDGPVVFESFSSAVVAPDLSRMLGIWRNLWADNEELGAHANAFIRDKLTAIKTIELH
modifications: Arthrobacter histidinolovorans
Residual activity (%) [1]: 68.6%
T70/T50 [2]: 1.95

B3: Ketose 3-epimerase mutant 13: amino acid-substituted mutant of SEQ ID NO: 1 (protein)
chain: MKIGCHGLVWTGRFDAEGIRYSVQKTKEAGFDLIEFPLMDPFSFDVATAKSALAEHGLTASASLGLSEATDVSSEDPAIVKAGEELLNRALDVLAELGATDFCGVIYSAMKKYMEPATEQGLSNSKAAIGRVVDRAAGLGINVSLEVVNRYETNVLNTGRQALSYLSDVKRPNLGVHLDTYHMNIEESDMFSPVLDTAEVLKYVHIGESHRGYLGTGSVDFDNFFKALGRIGYDGPVVFESFSSAVVAPDLSRMLGIWRNLWADNEELGAHANAFIRDKLTAIKTIELH
modifications: Arthrobacter histidinolovorans
Residual activity (%) [1]: 83.7%
T70/T50 [2]: 1.94

B4: Ketose 3-epimerase mutant 10: amino acid-substituted mutant of SEQ ID NO: 1 (protein)
chain: MKIGCHGLVWTGRFDAEGIRYSVQKTKEAGFDLIEFPLMDPFSFDVATAKSALAEHGLSVSASLGLSEATDVSSEDPAIVKAGEELLNRALDVLAELGATDFCGVIYSAMKKYMEPATEQGLSNSKAAVGRVVDRAAGLGINVSLEVVNRYETNVLNTGRQALSYLSDVKRPNLGVHLDTYHMNIEESDMFSPVLDTAEALKYVHIGESHRGYLGTGNVDFDNFFKALGRIGYDGPVVFESFSSAVVAPDLSRMLGIWRNLWADNEELGAHANAFIRDKLTAIKTIELH
modifications: Arthrobacter histidinolovorans
Residual activity (%) [1]: 79.5%
T70/T50 [2]: 1.98

B5: Ketose 3-epimerase mutant 8: amino acid-substituted mutant of SEQ ID NO: 1 (protein)
chain: MKIGCHGLVWTGRFDAEGIRYSVQKTKEAGFDLIEFPLMDPFSFDVATAKSALAEHGLTASASLGLSEATDVSSEDPAIVKAGEELLNRALDVLAELGATDFCGVIYSAMKKYMEPATEQGLSNSKAAIGRVVDRAAGLGINVSLEVVNRYETNVLNTGRQALSYLSDVKRPNLGVHLDTYHMNIEESDMFSPVLDTAEVLKYVHIGESHRGYLGTGNVDFDNFFKALGRIGYDGPVVFESFSSAVVAPDLSRMLGIWRNLWADNEELGAHANAFIRDKLTAIKTIELH
modifications: Arthrobacter histidinolovorans
Residual activity (%) [1]: 115.3%
T70/T50 [2]: 2.03

B6: Ketose 3-epimerase mutant 12: amino acid-substituted mutant of SEQ ID NO: 1 (protein)
chain: MKIGCHGLVWTGRFDAEGIRYSVQKTKEAGFDLIEFPLMDPFSFDVATAKSALAEHGLTASASLGLSEATDVSSEDPAIVKAGEELLNRALDVLAELGATDFCGVIYSAMKKYMEPATEQGLSNSKAAIGRVVDRAAGLGINVSLEVVNRYETNVLNTGRQALSYLSDVKRPNLGVHLDTYHMNIEESDMFSPVLDTAEALKYVHIGESHRGYLGTGNVDFDNFFKALGRIGYDGPVVFESFSSAVVAPDLSRMLGIWRNLWADNEELGAHANAFIRDKLTAIKTIELH
modifications: Arthrobacter histidinolovorans
Residual activity (%) [1]: 90.5%
T70/T50 [2]: 1.94

B7: Ketose 3-epimerase mutant 17: amino acid-substituted mutant of SEQ ID NO: 1 (protein)
chain: MKIGCHGLVWTGRFDAEGIRYSVQKTKEAGFDLIEFPLMDPFSFDVATAKSALAEHGLTASASLGLSEATDVSSEDPAIVKAGEELLNRALDVLAELGATEFCGVIYSAMKKYMEPATEQGLSNSKAAVGRVVDRAAGLGINVSLEVVNRYETNVLNTGRQALSYLSDVKRPNLGVHLDTYHMNIEESDMFSPVLDTAEVLKYVHIGESHRGYLGTGSVDFDNFFKALGRIGYDGPVVFESFSSAVVAPDLSRMLGIWRNLWADNEELGAHANAFIRDKLTAIKTIELH
modifications: Arthrobacter histidinolovorans
Residual activity (%) [1]: 62.3%
T70/T50 [2]: 1.89

B8: Ketose 3-epimerase mutant 16: amino acid-substituted mutant of SEQ ID NO: 1 (protein)
chain: MKIGCHGLVWTGRFDAEGIRYSVQKTKEAGFDLIEFPLMDPFSFDVATAKSALAEHGLSVSASLGLSEATDVSSEDPAIVKAGEELLNRALDVLAELGATEFCGVIYSAMKKYMEPATEQGLSNSKAAIGRVVDRAAGLGINVSLEVVNRYETNVLNTGRQALSYLSDVKRPNLGVHLDTYHMNIEESDMFSPVLDTAEALKYVHIGESHRGYLGTGSVDFDNFFKALGRIGYDGPVVFESFSSAVVAPDLSRMLGIWRNLWADNEELGAHANAFIRDKLTAIKTIELH
modifications: Arthrobacter histidinolovorans
Residual activity (%) [1]: 54.0%
T70/T50 [2]: 1.89

B9: Ketose 3-epimerase mutant 9: amino acid-substituted mutant of SEQ ID NO: 1 (protein)
chain: MKIGCHGLVWTGRFDAEGIRYSVQKTKEAGFDLIEFPLMDPFSFDVATAKSALAEHGLSVSASLGLSEATDVSSEDPAIVKAGEELLNRALDVLAELGATDFCGVIYSAMKKYMEPATEQGLSNSKAAVGRVVDRAAGLGINVSLEVVNRYETNVLNTGRQALSYLSDVKRPNLGVHLDTYHMNIEESDMFSPVLDTAEALKYVHIGESHRGYLGTGSVDFDNFFKALGRIGYDGPVVFESFSSAVVAPDLSRMLGIWRNLWADNEELGAHANAFIRDKLTAIKTIELH
modifications: Arthrobacter histidinolovorans
Residual activity (%) [1]: 65.6%
T70/T50 [2]: 2.01

B10: Ketose 3-epimerase mutant 14: amino acid-substituted mutant of SEQ ID NO: 1 (protein)
chain: MKIGCHGLVWTGRFDAEGIRYSVQKTKEAGFDLIEFPLMDPFSFDVATAKSALAEHGLTASASLGLSEATDVSSEDPAIVKAGEELLNRALDVLAELGATDFCGVIYSAMKKYMEPATEQGLSNSKAAVGRVVDRAAGLGINVSLEVVNRYETNVLNTGRQALSYLSDVKRPNLGVHLDTYHMNIEESDMFSPVLDTAEVLKYVHIGESHRGYLGTGSVDFDNFFKALGRIGYDGPVVFESFSSAVVAPDLSRMLGIWRNLWADNEELGAHANAFIRDKLTAIKTIELH
modifications: Arthrobacter histidinolovorans
Residual activity (%) [1]: 79.1%
T70/T50 [2]: 1.91

B11: Ketose 3-epimerase mutant 15: amino acid-substituted mutant of SEQ ID NO: 1 (protein)
chain: MKIGCHGLVWTGRFDAEGIRYSVQKTKEAGFDLIEFPLMDPFSFDVATAKSALAEHGLSVSASLGLSEATDVSSEDPAIVKAGEELLNRALDVLAELGATEFCGVIYSAMKKYMEPATEQGLSNSKAAVGRVVDRAAGLGINVSLEVVNRYETNVLNTGRQALSYLSDVKRPNLGVHLDTYHMNIEESDMFSPVLDTAEVLKYVHIGESHRGYLGTGSVDFDNFFKALGRIGYDGPVVFESFSSAVVAPDLSRMLGIWRNLWADNEELGAHANAFIRDKLTAIKTIELH
modifications: Arthrobacter histidinolovorans
Residual activity (%) [1]: 89.3%
T70/T50 [2]: 1.90
